In the assay with casein, protease Q (enzyme) had a proteolytic activity (U/mg), casein as substrate of 4290 U/mg. This substance came in with a hydrolysis of Azocoll, absorbance at 520 nm (% of original activity) in the assay with Azocoll of 47. In addition, the percent of β-casein hydrolyzed, band intensity on SDS-PAGE with β-casein amounted to 87 % hydrolyzed.

The record behind these values is patent US5976859.
